B1: Advillin, residues 785 to 819; numbered along this chain, O75366 (parent)
chain: LSEQDFVSVFGITRGQFAALPGWKQLQMKKEKGLF

± gives the uncertainty stated by the source.

Results on 70 variants are retold here after the Human Domainome abundance scans (Beltran et al. 2025).

The data set covers variants of B1. The data set can be described thus: abundance fitness (aPCA) (normalised: wild type 0, dead -1); higher = more abundant; growth selection in yeast, the domain comes from the species named. Particulars: Homo sapiens.
For LSEQDFVSVFGITRGQFCALPGWKQLQMKKEKGLF [A18C], the abundance fitness was -0.079 ± 0.09.

For the variant LSEQDFVSVFGITRGQFKALPGWKQLQMKKEKGLF [A18K], the abundance fitness amounted to 0.188 ± 0.12. As to LSEQDFVSVFGITRGQFEALPGWKQLQMKKEKGLF [A18E], the abundance fitness is 0.214 ± 0.063. For the variant LSEQDFVSVFGITRGQFSALPGWKQLQMKKEKGLF [A18S], the abundance fitness was -0.201 ± 0.065. In the case of LSEQDFVSVFGITRGQFRALPGWKQLQMKKEKGLF [A18R], the abundance fitness is -0.197 ± 0.067. For the variant LSEQDFVSVFGITRGQFNALPGWKQLQMKKEKGLF [A18N], the abundance fitness was found to be 0.154 ± 0.1. For the variant LSEQDFVSVFGITRGQFGALPGWKQLQMKKEKGLF [A18G], the abundance fitness was -0.103 ± 0.059. For the variant LSEQDFVSVFGITRGQFQALPGWKQLQMKKEKGLF [A18Q], the abundance fitness was -0.05 ± 0.1. Regarding LSEQDFVSVFGITRGQFPALPGWKQLQMKKEKGLF [A18P], the abundance fitness was -0.438 ± 0.16. Regarding LSEQDFVSVFGITRGQFHALPGWKQLQMKKEKGLF [A18H], the abundance fitness is -0.362 ± 0.19.

Consider LSEQDFVSVFGITRGQFIALPGWKQLQMKKEKGLF [A18I], for which the abundance fitness was -0.1 ± 0.1. The value for LSEQDFVSVFGITRGQFWALPGWKQLQMKKEKGLF [A18W] was -0.358 ± 0.088. As to LSEQDFVSVFGITRGQFLALPGWKQLQMKKEKGLF [A18L], the abundance fitness was -0.062 ± 0.078. Consider LSEQDFVSVFGITRGQFMALPGWKQLQMKKEKGLF [A18M], for which the abundance fitness is -0.3 ± 0.48.

Take LSEQDFVSVFGITQGQFAALPGWKQLQMKKEKGLF [R14Q]: the abundance fitness is -0.037 ± 0.074. As to LSEQDFVSVFGITDGQFAALPGWKQLQMKKEKGLF [R14D], the abundance fitness was -0.431 ± 0.071. For LSEQDFVSVFGITSGQFAALPGWKQLQMKKEKGLF [R14S] the value was -0.169 ± 0.058; for LSEQDFVSVFGITVGQFAALPGWKQLQMKKEKGLF [R14V], -0.264 ± 0.079; for LSEQDFVSVFGITKGQFAALPGWKQLQMKKEKGLF [R14K], 0.145 ± 0.12. Take LSEQDFVSVFGITCGQFAALPGWKQLQMKKEKGLF [R14C]: the abundance fitness is -0.095 ± 0.11.

Regarding LSEQDFVSVFGITMGQFAALPGWKQLQMKKEKGLF [R14M], the abundance fitness is -0.024 ± 0.078. Regarding LSEQDFVSVFGITWGQFAALPGWKQLQMKKEKGLF [R14W], the abundance fitness is -0.349 ± 0.066. For LSEQDFVSVFGITLGQFAALPGWKQLQMKKEKGLF [R14L] the value was -0.322 ± 0.079; for LSEQDFVSVFGITFGQFAALPGWKQLQMKKEKGLF [R14F], -0.117 ± 0.13. Take LSEQDFVSVFGITPGQFAALPGWKQLQMKKEKGLF [R14P]: the abundance fitness is -0.116 ± 0.11. With LSEQDFVSVFGITNGQFAALPGWKQLQMKKEKGLF [R14N], the abundance fitness was -0.611 ± 0.11.

As for LSEQDFVSVFGITGGQFAALPGWKQLQMKKEKGLF [R14G], the abundance fitness was -0.317 ± 0.063.

Regarding LSEQDFVSVFGITHGQFAALPGWKQLQMKKEKGLF [R14H], the abundance fitness is -0.262 ± 0.078. In the case of LSEQDFVSVFGITTGQFAALPGWKQLQMKKEKGLF [R14T], the abundance fitness was -0.205 ± 0.061. In the case of LSEQDFVSVFGITEGQFAALPGWKQLQMKKEKGLF [R14E], the abundance fitness was -0.024 ± 0.082. As to LSEQDFVSVFGITIGQFAALPGWKQLQMKKEKGLF [R14I], the abundance fitness was -0.252 ± 0.11. On to LSEQDFVSVFGITAGQFAALPGWKQLQMKKEKGLF [R14A], for which the abundance fitness is -0.121 ± 0.06. As to LSEQDFVSVFGITRGQMAALPGWKQLQMKKEKGLF [F17M], the abundance fitness was -0.249 ± 0.081. With LSEQDFVSVFGITRGQVAALPGWKQLQMKKEKGLF [F17V], the abundance fitness is -0.396 ± 0.072.

With LSEQDFVSVFGITRGQLAALPGWKQLQMKKEKGLF [F17L], the abundance fitness is -0.476 ± 0.082. Regarding LSEQDFVSVFGITRGQPAALPGWKQLQMKKEKGLF [F17P], the abundance fitness is -0.631 ± 0.11.

With LSEQDFVSVFGITRGQTAALPGWKQLQMKKEKGLF [F17T], the abundance fitness was -0.486 ± 0.12.

On to LSEQDFVSVFGITRGQAAALPGWKQLQMKKEKGLF [F17A], for which the abundance fitness was -0.389 ± 0.059. In the case of LSEQDFVSVFGITRGQCAALPGWKQLQMKKEKGLF [F17C], the abundance fitness is -0.435 ± 0.14. As for LSEQDFVSVFGITRGQKAALPGWKQLQMKKEKGLF [F17K], the abundance fitness was -0.479 ± 0.078. With LSEQDFVSVFGITRGQWAALPGWKQLQMKKEKGLF [F17W], the abundance fitness was -0.441 ± 0.08. For LSEQDFVSVFGITRGQSAALPGWKQLQMKKEKGLF [F17S], the abundance fitness is -0.454 ± 0.058. The value for LSEQDFVSVFGITRGQQAALPGWKQLQMKKEKGLF [F17Q] was -0.344 ± 0.18; that for LSEQDFVSVFGITRGQRAALPGWKQLQMKKEKGLF [F17R] was -0.554 ± 0.058. Take LSEQDFVSVFGITRGQYAALPGWKQLQMKKEKGLF [F17Y]: the abundance fitness is -0.969 ± 0.14. In the case of LSEQDFVSVFGITRGQHAALPGWKQLQMKKEKGLF [F17H], the abundance fitness is -0.965 ± 0.22. As for LSEQDFVSVFGITRGQIAALPGWKQLQMKKEKGLF [F17I], the abundance fitness is -0.538 ± 0.12.

As for LSEQDFVSVFGITRGQEAALPGWKQLQMKKEKGLF [F17E], the abundance fitness was -0.33 ± 0.07.

Consider LSEQDFVSVFGITRGQGAALPGWKQLQMKKEKGLF [F17G], for which the abundance fitness was -0.37 ± 0.055.

Consider LSEQDFVSVFGITRWQFAALPGWKQLQMKKEKGLF [G15W], for which the abundance fitness was -0.395 ± 0.07. Turning to LSEQDFVSVFGITRQQFAALPGWKQLQMKKEKGLF [G15Q], the abundance fitness was determined as 0.11 ± 0.083. The value for LSEQDFVSVFGITREQFAALPGWKQLQMKKEKGLF [G15E] was 0.238 ± 0.064; that for LSEQDFVSVFGITRCQFAALPGWKQLQMKKEKGLF [G15C] was -0.152 ± 0.1.

For the variant LSEQDFVSVFGITRLQFAALPGWKQLQMKKEKGLF [G15L], the abundance fitness was -0.215 ± 0.069. For the variant LSEQDFVSVFGITRNQFAALPGWKQLQMKKEKGLF [G15N], the abundance fitness was -0.05 ± 0.11. Regarding LSEQDFVSVFGITRTQFAALPGWKQLQMKKEKGLF [G15T], the abundance fitness was -0.052 ± 0.063. Consider LSEQDFVSVFGITRHQFAALPGWKQLQMKKEKGLF [G15H], for which the abundance fitness is 0.008 ± 0.11. For LSEQDFVSVFGITRSQFAALPGWKQLQMKKEKGLF [G15S] the value was 0.203 ± 0.071. Turning to LSEQDFVSVFGITRPQFAALPGWKQLQMKKEKGLF [G15P], the abundance fitness is -0.413 ± 0.1. For LSEQDFVSVFGITRDQFAALPGWKQLQMKKEKGLF [G15D] the value was 0.009 ± 0.093; for LSEQDFVSVFGITRAQFAALPGWKQLQMKKEKGLF [G15A], 0.16 ± 0.052. As for LSEQDFVSVFGITRIQFAALPGWKQLQMKKEKGLF [G15I], the abundance fitness is 0.042 ± 0.076. Turning to LSEQDFVSVFGITRVQFAALPGWKQLQMKKEKGLF [G15V], the abundance fitness is -0.077 ± 0.061.

Turning to LSEQDFVSVFGITRRQFAALPGWKQLQMKKEKGLF [G15R], the abundance fitness is -0.089 ± 0.048. As to LSEQDFVSVFGITRKQFAALPGWKQLQMKKEKGLF [G15K], the abundance fitness came to 0.15 ± 0.065. In the case of LSEQDFVSVFGITRFQFAALPGWKQLQMKKEKGLF [G15F], the abundance fitness is -0.193 ± 0.083. Turning to LSEQDFVSVNGITRGQFAALPGWKQLQMKKEKGLF [F10N], the abundance fitness is -0.2 ± 0.17. LSEQDFVSVVGITRGQFAALPGWKQLQMKKEKGLF [F10V]: the abundance fitness was -0.332 ± 0.055.

Turning to LSEQDFVSVPGITRGQFAALPGWKQLQMKKEKGLF [F10P], the abundance fitness is -0.726 ± 0.16.

In the case of LSEQDFVSVWGITRGQFAALPGWKQLQMKKEKGLF [F10W], the abundance fitness was -0.274 ± 0.066.
